# Assay results: patent publication US20030134774A1, “Methods for inhibiting cardiac disorders” (priority 2001, published 2003)
# Experiments:
# Format in all cases: cell-based, rat
# PLC = assay: Inositol phosphate production (PLC activation) in cardiomyocyte cultures
# Experimental: rPMT activates PLC. Cardiomyocyte cultures were incubated in media containing 3 μCi/ml [^3H] myoinositol for 96 hr, with 400 ng/ml rPMT for the indicated intervals at the end of this interval (Panel A) or the indicated concentration of rPMT included in the culture medium during the final 24 hr of culture (Panel B). This was followed by 30 min in the presence of 10 mM LiCl to inhibit the hydrolysis of inositol phosphate metabolites. Results are expressed as cpm over basal (mean±SEM; n=3) from a single experiment, and are representative of results obtained in 3 separate culture preparations.
# Cardiomyocytes grown in six-well plates were labeled with 3 μCi/ml [^3H]myoinositol for 96 hr. Treatment with rPMT was during the final 24 hr of this interval. Cells were washed to remove unincorporated radioisotope and then incubated for an additional 20 min with HEPES-buffered saline containing 10 mM LiCl. Cells were lysed with 1.05 mls of chloroform/methanol/6M HCl (500:1000:3) and harvested, and lipids were extracted for 30 min at room temperature. 1.05 mls of chloroform/water (1:2) were added, and the mixture was vortexed and centrifuged at 2000 g for 5 min to separate the phases. The aqueous phase was transferred to Dowex anion-exchange columns, and inositol phosphates were eluted sequentially according to standard methods as described previously (13).
# PKC isoforms = assay: Immunoblot of PKC isoform partitioning and down-regulation in cardiomyocytes; conditions: 400 ng/ml, early time points 30 min-2 hr
# Experimental: rPMT selectively activates nPKC isoforms. […] Soluble extracts were prepared and separated by SDS-PAGE followed by immunodetection of total PKC isoform abundance with antibodies that are specific for the individual PKC isoforms (Panel A), or phosphorylated forms of PKC (largely PKCε) with a pan-phospho-PKC antibody (Panels B and C), as described in Methods below. GF109203 was included at 5 μM 30 min prior to stimulation as indicated.
# Cells were maintained in culture in the presence of 10% FCS for 96 hr and then switched to serum-free medium for 24 hr prior to the addition of agonists as indicated. For PKC, extracts were prepared and subjected to SDS-PAGE to resolve individual isoforms according to methods described previously (14).
# Specific immunoreactivity for individual PKC isoforms was quantified according to methods described previously. […] Bands were detected by enhanced chemiluminescence and blots were quantified by laser scanning densitometry.
# ANF mRNA = assay: Northern blot analysis of ANF mRNA in cardiomyocytes; conditions: rPMT 400 ng/ml or NE 10 μM, 48 hr, serum-free
# Experimental: rPMT mimics the effect of norepinephrine to promote cardiomyocyte hypertrophy. Cardiomyocytes were cultured in serum-free medium without or with rPMT (400 ng/ml) or norepinephrine (NE, 10 μM) for 48 hr. Cardiomyocytes were fixed, permeabilized, and stained with monoclonal anti-α-actinin sarcomeric (Panel A, magnification×100) or subjected to Northern blot analysis for measurements of steady-state ANF mRNA expression (Panel B). Effects of rPMT (black bars) and NE (gray bars) vs. vehicle (white bars) on sarcomeric organization (Panel C), cell size (Panel D), and protein synthesis (Panel E) are illustrated (n=3 for each).
# Total RNA from neonatal rat cardiomyocytes were isolated by using a Qiagen kit according to manufacturer's instructions. A rat ANF cDNA probe (˜600 bp) was labeled with [^32P]dCTP. 10 μ/g of total RNA was separated on a 1% agarose gel and transferred to a nylon membrane (Amersham). Prehybridization and hybridization were performed according to standard methods. Normalization of signals was performed with a glyceraldehyde-3-phosphate dehydrogenase probe. Signals were detected by Phosphorimage analysis.
molecule,measurement,setting,value
"rPMT: recombinant Pasteurella multocida toxin, a Gαq agonist used as pharmacological probe (protein, UniProt P17452 1-1285, looked up) Dermonecrotic toxin: MKTKHFFNSDFTVKGKSADEIFRRLCTDHPDKQLNNVKWKEVFINRFGQMMLDTPNPRKIVEKIINEGLEKQGLKNIDPETTYFNIFSSSDSSDGNVFHYNSLSESYRVTDACLMNIFVERYFDDWDLLNSLASNGIYSVGKEGAYYPDHDYGPEYNPVWGPNEQIYHSRVIADILYARSVWDEFKKYFMEYWQKYAQLYTEMLSDTFLAMAIQQYTRQTLTDEGFLMVCNTYYGNKEEVQITLLDIYGYPSTDIICIEQKGLPTPKVILYIPGGTQPFVEFLNTDDLKQWIAWHLKDNKHMVAFRKHFSLKQRQEGETFTGIDKALQYIAEESPEWPANKYILYNPTHLETENLFNIMMKRTEQRMLEDSDVQIRSNSEATRDYALSLLETFISQLSAIDMLVPAVGIPINFALSATALGLSSDIVVNGDSYEKRKYGIGSLVQSALFTGINLIPVISETAEILSSFSRTEEDIPAFFTEEQALAQRFEIVEEELHSISPDDPPREITDENLHKIRLVRLNNENQPLVVLRRLGGNKFIRIEPITFQEIKGSLVSEVINPVTNKTYYVSNAKLLGGSPYSPFRIGLEGVWTPEVLKARASVIGKPIGESYKRILAKLQRIHNSNILDERQGLMHELMELIDLYEESQPSSERLNAFRELRTQLEKALYLPEMEALKKQILQIPNKGSGAARFLLRTAMNEMAGKTSESTADLIRFALQDTVISAPFRGYAGAIPEAIDFPVKYVIEDISVFDKIQTNYWELPAYESWNEGSNSALLPGLLRESQSKGMLSKCRIIENSLYIGHSYEEMFYSISPYSNQVGGPYELYPFTFFSMLQEVQGDLGFEQAFATRNFFNTLVSDRLSLMENTMLLTESFDYTPWDAIYGDINYDEQFAAMSINERIEKCMNTYRGVAFQNSSKSIDFFLNNLTTFIDNGLTEIAISDLPYDIVQQEISQFLQGSNEWKTLDAMLFNLDKGDINGAFRKLLQSAKDNNIKFRAIGHSDNSVPPFNNPYKSLYYKGNIIAEAIEKLDREGQKFVVFADSSLLNSTPGTGRPMPGLVQYLKIPATVVDSDGAWQFLPDVASSRVPIEVTELENWQVLTPPQGKILGLKQFKLTAGFPTEQSRLPLLENSVSEDLREELMQKIDAIKNDVKMNSLVCMEAGSCDSVSPKVAARLKDMGLEAGMGASITWWRREGGMEFSHQMHTTASFKFAGKEFAVDASHLQFVHDQLDTTILILPVDDWALEIAQRNRAINPFVEYVSKTGNMLALFMPPLFTKPRLTRAL",toxin concentration giving maximal activation of inositol phosphate accumulation,"PLC; at 24 hr, batches vary",400 ng/mL
same,inositol phosphate accumulation,PLC; cardiomyocytes,promotes inositol phosphate accumulation
same,time at which the inositol phosphate response is detectable,"PLC; cardiomyocytes, 400 ng/ml",1 h
same,time at which the inositol phosphate response is maximal,"PLC; cardiomyocytes, 400 ng/ml",48 h
same,partitioning of PKC isoforms between soluble and particulate fractions,PKC isoforms,does not detectably alter
same,ANF mRNA expression,ANF mRNA,induce ANF mRNA expression
